According to patent publication US20020177203A1 (published 2002):

Target: T1, mouse α2 subunit of prolyl 4-hydroxylase (mouse, UniProt Q60716 20-537)
T1 construct: Recombinant, made in Sf9 insect cells with a baculovirus; also called α(2) subunit of mouse prolyl 4-hydroxylase; α2 polypeptide
Assay: coexpression in insect cells; nondenaturing PAGE and Western blot
Experimental: A recombinant baculovirus coding for the mouse α2 subunit was generated and used to infect S. frugiperda insect cells with or without the human PDI/β subunit, wherein the insect cells were infected at a multiplicity of 5. For production of an enzyme tetramer, the human α59 1 (see, Vuori, et al., supra) or mouse α2 viruses and the PDI/β viruses (id.) were used in a 1:1 or 2:1 ratio. The cells were harvested 72 hours after infection, homogenized in 0.01 M tris, pH 7.8/0.1 M NaCl/0.1 M glycine/10 μM dithiothreitol/0.1% Triton X-100, and centrifuged. The resulting supematants were analyzed by SDS/8% PAGE or nondenaturing 7.5% PAGE and assayed for enzyme activities.

T1 sequence (Q60716 20-537): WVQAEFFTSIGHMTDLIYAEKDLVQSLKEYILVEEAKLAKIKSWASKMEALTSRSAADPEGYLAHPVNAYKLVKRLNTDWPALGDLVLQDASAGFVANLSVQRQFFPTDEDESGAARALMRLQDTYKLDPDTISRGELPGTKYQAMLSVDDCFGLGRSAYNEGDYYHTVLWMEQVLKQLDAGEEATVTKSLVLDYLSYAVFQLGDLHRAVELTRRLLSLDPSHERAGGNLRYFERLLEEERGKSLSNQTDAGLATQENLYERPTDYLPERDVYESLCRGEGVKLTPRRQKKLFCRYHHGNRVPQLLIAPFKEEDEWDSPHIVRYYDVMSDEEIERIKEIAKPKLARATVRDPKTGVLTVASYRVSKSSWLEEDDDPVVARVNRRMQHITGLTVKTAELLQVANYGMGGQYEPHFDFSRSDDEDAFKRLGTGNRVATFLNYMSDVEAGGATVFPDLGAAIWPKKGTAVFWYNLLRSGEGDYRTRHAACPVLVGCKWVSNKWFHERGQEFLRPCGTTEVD

B1: human PDI/β subunit of prolyl 4-hydroxylase (protein disulfide-isomerase) (enzyme)
chain: not shown
notes: Made in Sf9 insect cells with a recombinant baculovirus (Vuori et al.); also called human β subunit
Question: Does B1 bind?
Answer: binds
